We go through 1 protein from article doi:10.1101/2021.09.20.461017 (bioRxiv, 2021).

The series deals with the molecule itself. Nature of the series: crystal structure.

A word on the stoichiometry N: it is a count of units in the complex or per binding partner.

B1: ClpP from Bacillus subtilis (BsClpP) (enzyme)
chain: not shown
As to B1, the “stoichiometry N” value worked out at 14.
